Data from article PMC5880107, “The Sequence-specific Peptide-binding Activity of the Protein Sulfide Isomerase AGR2 Directs Its Stable Binding to the Oncogenic Receptor EpCAM*^([image sbox.jpg])” (Molecular & Cellular Proteomics : MCP, 2018).
No end group written: not given here.

B1: His-AGR2 WT (mature AGR2, amino acids 21-175, N-terminal 6xHis tag; plasmid pmAGR2) (natural protein, human)
chain: RDTTVKPGAKKDTKDSRPKLPQTLSRGWGDQLIWTQTYEEALYKSKTSSKPLMIIHHLDECPHSQALKKVFAENKEIQKLAEQFVLLNLVYETTDKHLSPDGQYVPRIMFVDPSLTVRADITGRYSNRLYAYEPADTALLLDNMKKALKLLKTEL
notes: human AGR2, mature form without the ER leader, residues 21-175; also called wt-AGR2; wild-type AGR2; source: E. coli BL21-AI, purified (Ni-NTA agarose; gel filtration buffer exchange for HDX)

Assays:
[1] = target: free consensus site containing peptides; experiment: fluorescence polarisation; data not shown; AGR2 binding to free consensus site containing peptides in solution
[2] = target: T1, biotinylated Peptide A4 (AGR2-binding peptide aptamer, HLPTTIYYGPPG) (also: biotinylated, end not given here); experiment: ELISA; biotinylated peptide A4 (5 μg/well) captured on streptavidin-coated microtitre plate; wt or mutant AGR2 titrated in 3% BSA in PBS-T, 1 h room temperature; detected with AGR2 antibody K47, RLU; conditions: both partners purified
T1 construct: also called TTIYY-containing peptide; source: synthetic peptide (Chiron Mimotopes)
T1 peptide: HLPTTIYYGPPG

[3] = target: T2, 16mer AGR2-interacting peptide SGSG-HLPTTIYYGPPG; experiment: HDX-MS; His-AGR2 WT 1 μM incubated 30 min with peptide 10 μM (1% DMSO), 10-fold dilution into deuterated buffer (20 mM Tris-HCl pD 7.6, 150 mM NaCl, 10 mM MgCl2), room temperature, 30 s to 3 h, pepsin; conditions: both partners purified
T2 construct: peptide A4 with an N-terminal SGSG stretch, as used for hydrogen-deuterium exchange; also called peptide A4 (in the HDX experiment); consensus site peptide A4; source: synthetic peptide (Chiron Mimotopes), stock 5 mg/ml in DMSO
T2 peptide: SGSGHLPTTIYYGPPG

[4] = target: T3, His-EpEX-CO, extracellular domain of EpCAM (amino acids 24-265), N-terminal 6xHis tag (human); experiment: ELISA; His-EpCAM (EpEX, wt or Y251A) immobilised on polystyrene microtitre plate in 0.1 M NaHCO3 pH 8.6; AGR2 wt or mutants titrated in the mobile phase (0-1 μg), 1 h room temperature; without or with 1 mM DTT at the binding or the blocking step; detected with AGR2 antibody K47, RLU; conditions: both partners purified
T3 construct: human EpCAM extracellular domain (EpEX), amino acids 24-265 of NM_002354; For HDX the protein was eluted with 1 mM DTT in the final buffer; also called wt-EpCAM; His-EpCAM; source: E. coli BL21-DE3, solubilised with 7 M urea, purified (Ni-NTA agarose); not shown: His6 followed by a TEV protease site, N-terminal, kept
T3 chain: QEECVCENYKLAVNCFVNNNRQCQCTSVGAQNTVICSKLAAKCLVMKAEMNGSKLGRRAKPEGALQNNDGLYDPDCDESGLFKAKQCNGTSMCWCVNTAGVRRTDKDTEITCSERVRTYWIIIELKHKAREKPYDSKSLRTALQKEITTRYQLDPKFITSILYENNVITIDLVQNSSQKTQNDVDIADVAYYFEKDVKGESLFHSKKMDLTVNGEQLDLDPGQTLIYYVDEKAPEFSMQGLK

[5] = target: B1; experiment: ELISA; competition: biotinylated peptide A4 on the streptavidin-coated solid phase; fixed 1 μg AGR2 added with 100 ng of the indicated non-biotinylated synthetic peptide; AGR2 binding in RLU; conditions: both partners purified

Binder | binding result [2] | binding result [4] | binding result [5] | further results
B1 | binds | binds | – | Kd [1]: 15 to 45 µM; binding result [3]: binds
His-AGR2 S134A (plasmid pmAGR2S134A) (natural protein, human, Ser at 69 as in m1; also called mutant AGR2^S134A; source: E. coli BL21-AI, purified (Ni-NTA agarose; gel filtration buffer exchange for HDX)) RDTTVKPGAKKDTKDSRPKLPQTLSRGWGDQLIWTQTYEEALYKSKTSSKPLMIIHHLDECPHSQALKKVFAENKEIQKLAEQFVLLNLVYETTDKHLSPDGQYVPRIMFVDPALTVRADITGRYSNRLYAYEPADTALLLDNMKKALKLLKTEL | binds | binds | – | –
His-AGR2 P133A (plasmid pmAGR2P133A) (natural protein, human, human AGR2 residues 21-175; source: E. coli BL21-AI, purified (Ni-NTA agarose); not shown: His6 (leader as in m1), N-terminal, kept) RDTTVKPGAKKDTKDSRPKLPQTLSRGWGDQLIWTQTYEEALYKSKTSSKPLMIIHHLDECPHSQALKKVFAENKEIQKLAEQFVLLNLVYETTDKHLSPDGQYVPRIMFVDASLTVRADITGRYSNRLYAYEPADTALLLDNMKKALKLLKTEL | binds | binds | – | –
His-AGR2 D132A (plasmid pmAGR2D132A) (natural protein, human, human AGR2 residues 21-175; source: E. coli BL21-AI, purified (Ni-NTA agarose); not shown: His6 (leader as in m1), N-terminal, kept) RDTTVKPGAKKDTKDSRPKLPQTLSRGWGDQLIWTQTYEEALYKSKTSSKPLMIIHHLDECPHSQALKKVFAENKEIQKLAEQFVLLNLVYETTDKHLSPDGQYVPRIMFVAPSLTVRADITGRYSNRLYAYEPADTALLLDNMKKALKLLKTEL | binds | binds | – | –
PTTIYY (also called PTTIYY hexapeptide; source: synthetic peptide) [wt-peptide PTTIYY (non-biotinylated hexapeptide)] | – | – | binds | –
PTTIWY (also called PTTIWY; source: synthetic peptide (mutational scan library)) [PTTIYY hexapeptide with Tyrosine at position 5 changed to Tryptophan] | – | – | binds | –
PTTIYA (also called PTTIYA; source: synthetic peptide (mutational scan library)) [PTTIYY hexapeptide with the Y-A mutation at position 6] | – | – | binds | –
PTTLYY (also called PTTLYY; source: synthetic peptide (mutational scan library)) [PTTIYY hexapeptide with Isoleucine at position 4 changed to Leucine] | – | – | binds | –
PTTIYF (also called PTTIYF; source: synthetic peptide (mutational scan library)) [PTTIYY hexapeptide with Tyrosine at position 6 changed to Phenylalanine] | – | – | binds | –
PTTIYW (also called PTTIYW; source: synthetic peptide (mutational scan library)) [PTTIYY hexapeptide with Tyrosine at position 6 changed to Tryptophan] | – | – | binds | –
PTTIFY (also called PTTIFY; source: synthetic peptide (mutational scan library)) [PTTIYY hexapeptide with Tyrosine at position 5 changed to Phenylalanine] | – | – | binds | –
